According to patent US9260500B2, “Peptide and use thereof” (Takeda Pharmaceutical Company Limited, priority 2009, dated 2016):
Starred links: 1 amine or outer side, 2 acyl side, 3 side chain; linkers in the order of their positions; H or OH if unused. Non-standard residues stand in square brackets, D forms with d. *: point of attachment. X4 = ((1S)-1-Carboxy-3-methylbutyl)carbamoyl, CC(C)C[C@H](NC(=O)*)C(=O)O; X2 = (tetrahydro-2H-pyran-4-ylmethyl)carbamoyl, O=C(NCC1CCOCC1)*; Ala(piperidin-4-yl) = O=C([C@H](CC1CCN([*:3])CC1)N[*:1])[*:2]; (3-Carboxypropyl)carbamoyl = O=C(O)CCCNC(=O)*; 2Nal = N[C@@H](Cc1ccc2ccccc2c1)C(=O)O; Imidazole4carbonyl = O=C(c1cnc[nH]1)*; Arg(Me) = CNC(=N)NCCC[C@H](N)C(=O)O; tBuAla = CC(C)(C)C[C@H](N)C(=O)O; 4Pal = N[C@@H](Cc1ccncc1)C(=O)O; dHyp = O=C(O)[C@H]1C[C@H](O)CN1; Cha = N[C@@H](CC1CCCCC1)C(=O)O; Suc = O=C(CCC(=O)[*:2])[*:1]; Iva = CC[C@](C)(N)C(=O)O; Abu = CC[C@H](N)C(=O)O; Aib = CC(C)(N)C(=O)O; Glycolyl = O=C(CO)*

How the values were obtained:
human Y2 receptor [1] = target: T1, human Y2 receptor (Homo sapiens, UniProt P49146); assay: Receptor Binding Assay (RBA) for Human Y2, [125I]-PYY displacement on hY2R/CHO membrane fraction; conditions: IC50 of test compound/IC50 of PYY(3-36) (PYY(3-36) taken as 1)
T1 construct: expressed in transfected cells; membrane fraction
T1 sequence (P49146 1-381): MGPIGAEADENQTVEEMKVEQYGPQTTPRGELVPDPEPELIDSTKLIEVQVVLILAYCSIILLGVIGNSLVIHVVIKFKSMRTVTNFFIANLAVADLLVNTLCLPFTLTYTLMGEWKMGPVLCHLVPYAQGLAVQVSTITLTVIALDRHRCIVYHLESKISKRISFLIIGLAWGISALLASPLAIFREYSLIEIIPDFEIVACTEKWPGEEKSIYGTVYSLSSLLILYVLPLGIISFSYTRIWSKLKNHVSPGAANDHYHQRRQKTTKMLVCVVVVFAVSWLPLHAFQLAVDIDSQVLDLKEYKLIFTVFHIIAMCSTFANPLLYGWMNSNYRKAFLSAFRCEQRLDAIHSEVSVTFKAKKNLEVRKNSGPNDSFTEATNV
Summary of the method: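 hY2R stably expressed in CHO/dhfr− cells; membrane fraction prepared from cells disrupted in 10 mM NaHCO3, 5 mM EDTA buffer with protease inhibitors. Binding read as displacement of [125I]-PYY.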

human Y2 receptor [2] = target: T1, human Y2 receptor; assay: Human Y2 Receptor G Protein Binding Assay (GBA), [35S]GTPγS; format: biochemical; conditions: EC50 of test compound/EC50 of PYY(3-36) (PYY3-36 taken as 1), hY2R/CHO membrane fraction
Summary of the method: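 Agonism measured as [35S]GTPγS binding, read by GF/C filtration and scintillation counting after 120 min at room temperature, using human Y2 membranes at 1 μg protein/mL in pH 7.4 Tris/MgCl2/NaCl/GDP buffer. Compound serially diluted 100 μM–1 nM; EC50 normalized to PYY(3-36) (ratio = compound/PYY).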

male C57EL/6J mice = assay: 3-Days Continuous Subcutaneous Administration Test-1 (food intake suppressing activity); format: in vivo, mouse; conditions: 0.03 mg/kg/day, subcutaneous Alzet pump, food consumption over 3 days; relative to food intake suppression rate for PYY(3-36) (1 mg/kg/day) taken as 100%
Summary of the method: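 Male […] mice, 12-13 weeks, received compound at 0.03 mg/kg/day by subcutaneous osmotic pump (50% DMSO vehicle), housed singly with free food access. Food consumed over 3 days measured; suppression expressed relative to PYY(3-36) (1 mg/kg/day) set as 100%.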

| Substance | RBA IC50 Ratio (human Y2 receptor [1]) | GBA EC50 Ratio (human Y2 receptor [2]) | food intake suppression rate (%) (male C57EL/6J mice) |
| --- | --- | --- | --- |
| Ac-[D-Pro24, Pya(4)26, Nal(2)27, Aib28,31, Lys30, Cha36]-PYY(23-36) (Ac-S[dP]R[4Pal][2Nal][Aib]NK[Aib]TRQR[Cha]-NH2; SMILES CC(=O)N[C@@H](CO)C(=O)N1CCC[C@@H]1C(=O)N[C@@H](CCCNC(=N)N)C(=O)N[C@@H](Cc1ccncc1)C(=O)N[C@@H](Cc1ccc2ccccc2c1)C(=O)NC(C)(C)C(=O)N[C@@H](CC(N)=O)C(=O)N[C@@H](CCCCN)C(=O)NC(C)(C)C(=O)N[C@H](C(=O)N[C@@H](CCCNC(=N)N)C(=O)N[C@@H](CCC(N)=O)C(=O)N[C@@H](CCCNC(=N)N)C(=O)N[C@@H](CC1CCCCC1)C(N)=O)[C@@H](C)O) [compound No. 307] | 7.2 | 4.0 | 22% |
| Ac-[Iva24, Pya(4)26, Cha27,36, Aib28,31, Lys30]-PYY(23-36) (Ac-S[Iva]R[4Pal][Cha][Aib]NK[Aib]TRQR[Cha]-NH2; SMILES CC[C@](C)(NC(=O)[C@H](CO)NC(C)=O)C(=O)N[C@@H](CCCNC(=N)N)C(=O)N[C@@H](Cc1ccncc1)C(=O)N[C@@H](CC1CCCCC1)C(=O)NC(C)(C)C(=O)N[C@@H](CC(N)=O)C(=O)N[C@@H](CCCCN)C(=O)NC(C)(C)C(=O)N[C@H](C(=O)N[C@@H](CCCNC(=N)N)C(=O)N[C@@H](CCC(N)=O)C(=O)N[C@@H](CCCNC(=N)N)C(=O)N[C@@H](CC1CCCCC1)C(N)=O)[C@@H](C)O) [compound No. 241] | 0.58 | 0.91 | 16% |
| Glycoloyl-[D-Hyp24, Iva25,28, Pya(4)26, Cha27,36, Leu(Me)28, Lys30, Aib31]-PYY(23-36) (Glycolyl-S[dHyp][Iva][4Pal][Cha][Iva]NK[Aib]TRQR[Cha]-NH2) [compound No. 338] | 1.9 | 2.1 | 27% |
| (3-Carboxypropyl)carbamoyl-[D-Pro24, Iva25, Pya(4)26, Cha27,36, Aib28,31, Lys30]-PYY(23-36) ({(3-Carboxypropyl)carbamoyl}-S[dP][Iva][4Pal][Cha][Aib]NK[Aib]TRQR[Cha]-NH2; SMILES CC[C@](C)(NC(=O)[C@H]1CCCN1C(=O)[C@H](CO)NC(=O)NCCCC(=O)O)C(=O)N[C@@H](Cc1ccncc1)C(=O)N[C@@H](CC1CCCCC1)C(=O)NC(C)(C)C(=O)N[C@@H](CC(N)=O)C(=O)N[C@@H](CCCCN)C(=O)NC(C)(C)C(=O)N[C@H](C(=O)N[C@@H](CCCNC(=N)N)C(=O)N[C@@H](CCC(N)=O)C(=O)N[C@@H](CCCNC(=N)N)C(=O)N[C@@H](CC1CCCCC1)C(N)=O)[C@@H](C)O) [compound No. 328] | 1.6 | 1.9 | 75% |
| (Tetrahydro-2H-pyran-4-ylmethyl)carbamoyl-[D-Pro24, Pya(4)26, Cha27,36, Aib28,31, Lys30]-PYY(23-36) (X2-S[dP]R[4Pal][Cha][Aib]NK[Aib]TRQR[Cha]-NH2; SMILES C[C@@H](O)[C@H](NC(=O)C(C)(C)NC(=O)[C@H](CCCCN)NC(=O)[C@H](CC(N)=O)NC(=O)C(C)(C)NC(=O)[C@H](CC1CCCCC1)NC(=O)[C@H](Cc1ccncc1)NC(=O)[C@H](CCCNC(=N)N)NC(=O)[C@H]1CCCN1C(=O)[C@H](CO)NC(=O)NCC1CCOCC1)C(=O)N[C@@H](CCCNC(=N)N)C(=O)N[C@@H](CCC(N)=O)C(=O)N[C@@H](CCCNC(=N)N)C(=O)N[C@@H](CC1CCCCC1)C(N)=O) [compound No. 325] | 0.82 | 0.7 | 47% |
| 4-Imidazolecarbonyl-[D-Hyp24, Iva25, Pya(4)26, Cha27,36, Aib28,31, Lys30]-PYY(23-36) (Imidazole4carbonyl-S[dHyp][Iva][4Pal][Cha][Aib]NK[Aib]TRQR[Cha]-NH2; SMILES CC[C@](C)(NC(=O)[C@H]1C[C@H](O)CN1C(=O)[C@H](CO)NC(=O)c1cnc[nH]1)C(=O)N[C@@H](Cc1ccncc1)C(=O)N[C@@H](CC1CCCCC1)C(=O)NC(C)(C)C(=O)N[C@@H](CC(N)=O)C(=O)N[C@@H](CCCCN)C(=O)NC(C)(C)C(=O)N[C@H](C(=O)N[C@@H](CCCNC(=N)N)C(=O)N[C@@H](CCC(N)=O)C(=O)N[C@@H](CCCNC(=N)N)C(=O)N[C@@H](CC1CCCCC1)C(N)=O)[C@@H](C)O) [compound No. 299] | 1.3 | 0.92 | 46% |
| Ac-[D-Pro24, Abu26, Cha27,36, Aib28,31, Lys30]-PYY(23-36) (Ac-S[dP]R[Abu][Cha][Aib]NK[Aib]TRQR[Cha]-NH2; SMILES CC[C@H](NC(=O)[C@H](CCCNC(=N)N)NC(=O)[C@H]1CCCN1C(=O)[C@H](CO)NC(C)=O)C(=O)N[C@@H](CC1CCCCC1)C(=O)NC(C)(C)C(=O)N[C@@H](CC(N)=O)C(=O)N[C@@H](CCCCN)C(=O)NC(C)(C)C(=O)N[C@H](C(=O)N[C@@H](CCCNC(=N)N)C(=O)N[C@@H](CCC(N)=O)C(=O)N[C@@H](CCCNC(=N)N)C(=O)N[C@@H](CC1CCCCC1)C(N)=O)[C@@H](C)O) [compound No. 320] | 2.3 | 0.98 | 18% |
| Ac-[D-Pro24, Pya(4)26, Cha27,36, Aib28,31, Ala(4-pip)30]-PYY(23-36) (Ac-S[dP]R[4Pal][Cha][Aib]N[Ala(piperidin-4-yl)][Aib]TRQR[Cha]-NH2; SMILES CC(=O)N[C@@H](CO)C(=O)N1CCC[C@@H]1C(=O)N[C@@H](CCCNC(=N)N)C(=O)N[C@@H](Cc1ccncc1)C(=O)N[C@@H](CC1CCCCC1)C(=O)NC(C)(C)C(=O)N[C@@H](CC(N)=O)C(=O)N[C@@H](CC1CCNCC1)C(=O)NC(C)(C)C(=O)N[C@H](C(=O)N[C@@H](CCCNC(=N)N)C(=O)N[C@@H](CCC(N)=O)C(=O)N[C@@H](CCCNC(=N)N)C(=O)N[C@@H](CC1CCCCC1)C(N)=O)[C@@H](C)O) [compound No. 313] | 0.72 | 0.8 | 23% |
| [(1S)-1-Carboxy-3-methylbutyl]carbamoyl-[Glu23, D-Pro24, Pya(4)26, Cha27,36, Aib28,31, Lys30]-PYY(23-36) (X4-E[dP]R[4Pal][Cha][Aib]NK[Aib]TRQR[Cha]-NH2; SMILES CC(C)C[C@H](NC(=O)N[C@@H](CCC(=O)O)C(=O)N1CCC[C@@H]1C(=O)N[C@@H](CCCNC(=N)N)C(=O)N[C@@H](Cc1ccncc1)C(=O)N[C@@H](CC1CCCCC1)C(=O)NC(C)(C)C(=O)N[C@@H](CC(N)=O)C(=O)N[C@@H](CCCCN)C(=O)NC(C)(C)C(=O)N[C@H](C(=O)N[C@@H](CCCNC(=N)N)C(=O)N[C@@H](CCC(N)=O)C(=O)N[C@@H](CCCNC(=N)N)C(=O)N[C@@H](CC1CCCCC1)C(N)=O)[C@@H](C)O)C(=O)O) [compound No. 283] | 2.2 | 2.5 | 18% |
| 4-Imidazolecarbonyl-[D-Pro24, Pya(4)26, Cha27,36, Aib28,31, Lys30]-PYY(23-36) (Imidazole4carbonyl-S[dP]R[4Pal][Cha][Aib]NK[Aib]TRQR[Cha]-NH2; SMILES C[C@@H](O)[C@H](NC(=O)C(C)(C)NC(=O)[C@H](CCCCN)NC(=O)[C@H](CC(N)=O)NC(=O)C(C)(C)NC(=O)[C@H](CC1CCCCC1)NC(=O)[C@H](Cc1ccncc1)NC(=O)[C@H](CCCNC(=N)N)NC(=O)[C@H]1CCCN1C(=O)[C@H](CO)NC(=O)c1cnc[nH]1)C(=O)N[C@@H](CCCNC(=N)N)C(=O)N[C@@H](CCC(N)=O)C(=O)N[C@@H](CCCNC(=N)N)C(=O)N[C@@H](CC1CCCCC1)C(N)=O) [compound No. 213] | 0.76 | 1.1 | 33% |
| 3-Carboxypropionyl-[D-Hyp24, Iva25, Pya(4)26, Cha27,36, Leu(Me)28, Lys30, Aib31]-PYY(23-36) (Suc-S[dHyp][Iva][4Pal][Cha][tBuAla]NK[Aib]TRQR[Cha]-NH2; SMILES CC[C@](C)(NC(=O)[C@H]1C[C@H](O)CN1C(=O)[C@H](CO)NC(=O)CCC(=O)O)C(=O)N[C@@H](Cc1ccncc1)C(=O)N[C@@H](CC1CCCCC1)C(=O)N[C@@H](CC(C)(C)C)C(=O)N[C@@H](CC(N)=O)C(=O)N[C@@H](CCCCN)C(=O)NC(C)(C)C(=O)N[C@H](C(=O)N[C@@H](CCCNC(=N)N)C(=O)N[C@@H](CCC(N)=O)C(=O)N[C@@H](CCCNC(=N)N)C(=O)N[C@@H](CC1CCCCC1)C(N)=O)[C@@H](C)O) [compound No. 350] | 0.92 | 1.9 | 41% |
| Ac-[D-Pro24, Iva25, Pya(4)26, Cha27,36, Aib28,31, Arg(Me)30]-PYY(23-36) (Ac-S[dP][Iva][4Pal][Cha][Aib]N[Arg(Me)][Aib]TRQR[Cha]-NH2) [compound No. 316] | 2.4 | 1.7 | 29% |
